Data as given in article doi:10.1101/2020.07.07.187567.

Molecular target: LhgR, L-2-HG catabolism regulator of Pseudomonas putida W619 (His6-tagged) (Pseudomonas putida W619)
Assay: SEC

LhgR, L-2-HG catabolism regulator of Pseudomonas putida W619 (His6-tagged) (natural protein)
stoichiometry N: 2
